Test results as given in US20210388087A1 (Chugai, published 2021).

T1: Human CD3eg linker (human)
T1 construct: single-chain construct; also called recombinant human CD3
T1 chain: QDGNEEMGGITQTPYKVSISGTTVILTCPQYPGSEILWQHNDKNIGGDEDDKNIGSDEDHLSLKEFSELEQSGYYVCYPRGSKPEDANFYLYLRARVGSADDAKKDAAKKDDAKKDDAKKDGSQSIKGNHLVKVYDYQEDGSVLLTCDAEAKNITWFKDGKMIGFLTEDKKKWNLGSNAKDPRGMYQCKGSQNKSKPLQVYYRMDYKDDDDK


Target: T1, Human CD3eg linker
Assay: SPR, vs unmutated H183/L072

fold change of affinity	Binder
1.2 fold	dBBDu183H A100H/dBBDu072L (antibody, name in Kabat numbering, V domains shown) VH: QVQLVESGGGLVQPGRSLRLSCAASGFTFSNAWMHWVRQAPGKGLEWVAQIKDKGNAYAAYYAPSVKGRFTISRDDSKNSIYLQMNSLKTEDTAVYYCHYVHYASHSTVLPAFGVDAWGQGTTVTVSS VL: DIVMTQSPLSLPVTPGEPASISCQASQELVHMNRNTYLHWYQQKPGQAPRLLIYKVSNRFPGVPDRFSGSGSGTDFTLKISRVEAEDVGVYYCAQGTSVPFTFGQGTKLEIK
1.7 fold	dBBDu183H A100Y/dBBDu072L (antibody, name in Kabat numbering, V domains shown) VH: QVQLVESGGGLVQPGRSLRLSCAASGFTFSNAWMHWVRQAPGKGLEWVAQIKDKGNAYAAYYAPSVKGRFTISRDDSKNSIYLQMNSLKTEDTAVYYCHYVHYASYSTVLPAFGVDAWGQGTTVTVSS VL: DIVMTQSPLSLPVTPGEPASISCQASQELVHMNRNTYLHWYQQKPGQAPRLLIYKVSNRFPGVPDRFSGSGSGTDFTLKISRVEAEDVGVYYCAQGTSVPFTFGQGTKLEIK
1.1 fold	dBBDu183H A100fF/dBBDu072L (antibody, name in Kabat numbering, V domains shown) VH: QVQLVESGGGLVQPGRSLRLSCAASGFTFSNAWMHWVRQAPGKGLEWVAQIKDKGNAYAAYYAPSVKGRFTISRDDSKNSIYLQMNSLKTEDTAVYYCHYVHYASASTVLPFFGVDAWGQGTTVTVSS VL: DIVMTQSPLSLPVTPGEPASISCQASQELVHMNRNTYLHWYQQKPGQAPRLLIYKVSNRFPGVPDRFSGSGSGTDFTLKISRVEAEDVGVYYCAQGTSVPFTFGQGTKLEIK
1.1 fold	dBBDu183H A100S/dBBDu072L (antibody, name in Kabat numbering, V domains shown) VH: QVQLVESGGGLVQPGRSLRLSCAASGFTFSNAWMHWVRQAPGKGLEWVAQIKDKGNAYAAYYAPSVKGRFTISRDDSKNSIYLQMNSLKTEDTAVYYCHYVHYASSSTVLPAFGVDAWGQGTTVTVSS VL: DIVMTQSPLSLPVTPGEPASISCQASQELVHMNRNTYLHWYQQKPGQAPRLLIYKVSNRFPGVPDRFSGSGSGTDFTLKISRVEAEDVGVYYCAQGTSVPFTFGQGTKLEIK
0.4 fold	dBBDu183H A100fD/dBBDu072L (antibody, name in Kabat numbering, V domains shown) VH: QVQLVESGGGLVQPGRSLRLSCAASGFTFSNAWMHWVRQAPGKGLEWVAQIKDKGNAYAAYYAPSVKGRFTISRDDSKNSIYLQMNSLKTEDTAVYYCHYVHYASASTVLPDFGVDAWGQGTTVTVSS VL: DIVMTQSPLSLPVTPGEPASISCQASQELVHMNRNTYLHWYQQKPGQAPRLLIYKVSNRFPGVPDRFSGSGSGTDFTLKISRVEAEDVGVYYCAQGTSVPFTFGQGTKLEIK
2.1 fold	dBBDu183H A100R/dBBDu072L (antibody, name in Kabat numbering, V domains shown) VH: QVQLVESGGGLVQPGRSLRLSCAASGFTFSNAWMHWVRQAPGKGLEWVAQIKDKGNAYAAYYAPSVKGRFTISRDDSKNSIYLQMNSLKTEDTAVYYCHYVHYASRSTVLPAFGVDAWGQGTTVTVSS VL: DIVMTQSPLSLPVTPGEPASISCQASQELVHMNRNTYLHWYQQKPGQAPRLLIYKVSNRFPGVPDRFSGSGSGTDFTLKISRVEAEDVGVYYCAQGTSVPFTFGQGTKLEIK
1.7 fold	dBBDu183H A100fS/dBBDu072L (antibody, name in Kabat numbering, V domains shown) VH: QVQLVESGGGLVQPGRSLRLSCAASGFTFSNAWMHWVRQAPGKGLEWVAQIKDKGNAYAAYYAPSVKGRFTISRDDSKNSIYLQMNSLKTEDTAVYYCHYVHYASASTVLPSFGVDAWGQGTTVTVSS VL: DIVMTQSPLSLPVTPGEPASISCQASQELVHMNRNTYLHWYQQKPGQAPRLLIYKVSNRFPGVPDRFSGSGSGTDFTLKISRVEAEDVGVYYCAQGTSVPFTFGQGTKLEIK
0.8 fold	dBBDu183H A100Q/dBBDu072L (antibody, name in Kabat numbering, V domains shown) VH: QVQLVESGGGLVQPGRSLRLSCAASGFTFSNAWMHWVRQAPGKGLEWVAQIKDKGNAYAAYYAPSVKGRFTISRDDSKNSIYLQMNSLKTEDTAVYYCHYVHYASQSTVLPAFGVDAWGQGTTVTVSS VL: DIVMTQSPLSLPVTPGEPASISCQASQELVHMNRNTYLHWYQQKPGQAPRLLIYKVSNRFPGVPDRFSGSGSGTDFTLKISRVEAEDVGVYYCAQGTSVPFTFGQGTKLEIK
1.9 fold	dBBDu183H A100K/dBBDu072L (antibody, name in Kabat numbering, V domains shown) VH: QVQLVESGGGLVQPGRSLRLSCAASGFTFSNAWMHWVRQAPGKGLEWVAQIKDKGNAYAAYYAPSVKGRFTISRDDSKNSIYLQMNSLKTEDTAVYYCHYVHYASKSTVLPAFGVDAWGQGTTVTVSS VL: DIVMTQSPLSLPVTPGEPASISCQASQELVHMNRNTYLHWYQQKPGQAPRLLIYKVSNRFPGVPDRFSGSGSGTDFTLKISRVEAEDVGVYYCAQGTSVPFTFGQGTKLEIK
1.2 fold	dBBDu183H A100fQ/dBBDu072L (antibody, name in Kabat numbering, V domains shown) VH: QVQLVESGGGLVQPGRSLRLSCAASGFTFSNAWMHWVRQAPGKGLEWVAQIKDKGNAYAAYYAPSVKGRFTISRDDSKNSIYLQMNSLKTEDTAVYYCHYVHYASASTVLPQFGVDAWGQGTTVTVSS VL: DIVMTQSPLSLPVTPGEPASISCQASQELVHMNRNTYLHWYQQKPGQAPRLLIYKVSNRFPGVPDRFSGSGSGTDFTLKISRVEAEDVGVYYCAQGTSVPFTFGQGTKLEIK
1.2 fold	dBBDu183H A100V/dBBDu072L (antibody, name in Kabat numbering, V domains shown) VH: QVQLVESGGGLVQPGRSLRLSCAASGFTFSNAWMHWVRQAPGKGLEWVAQIKDKGNAYAAYYAPSVKGRFTISRDDSKNSIYLQMNSLKTEDTAVYYCHYVHYASVSTVLPAFGVDAWGQGTTVTVSS VL: DIVMTQSPLSLPVTPGEPASISCQASQELVHMNRNTYLHWYQQKPGQAPRLLIYKVSNRFPGVPDRFSGSGSGTDFTLKISRVEAEDVGVYYCAQGTSVPFTFGQGTKLEIK
1.5 fold	dBBDu183H A100fG/dBBDu072L (antibody, name in Kabat numbering, V domains shown) VH: QVQLVESGGGLVQPGRSLRLSCAASGFTFSNAWMHWVRQAPGKGLEWVAQIKDKGNAYAAYYAPSVKGRFTISRDDSKNSIYLQMNSLKTEDTAVYYCHYVHYASASTVLPGFGVDAWGQGTTVTVSS VL: DIVMTQSPLSLPVTPGEPASISCQASQELVHMNRNTYLHWYQQKPGQAPRLLIYKVSNRFPGVPDRFSGSGSGTDFTLKISRVEAEDVGVYYCAQGTSVPFTFGQGTKLEIK
1.6 fold	dBBDu183H A100fR/dBBDu072L (antibody, name in Kabat numbering, V domains shown) VH: QVQLVESGGGLVQPGRSLRLSCAASGFTFSNAWMHWVRQAPGKGLEWVAQIKDKGNAYAAYYAPSVKGRFTISRDDSKNSIYLQMNSLKTEDTAVYYCHYVHYASASTVLPRFGVDAWGQGTTVTVSS VL: DIVMTQSPLSLPVTPGEPASISCQASQELVHMNRNTYLHWYQQKPGQAPRLLIYKVSNRFPGVPDRFSGSGSGTDFTLKISRVEAEDVGVYYCAQGTSVPFTFGQGTKLEIK
1.4 fold	dBBDu183H A100fK/dBBDu072L (antibody, name in Kabat numbering, V domains shown) VH: QVQLVESGGGLVQPGRSLRLSCAASGFTFSNAWMHWVRQAPGKGLEWVAQIKDKGNAYAAYYAPSVKGRFTISRDDSKNSIYLQMNSLKTEDTAVYYCHYVHYASASTVLPKFGVDAWGQGTTVTVSS VL: DIVMTQSPLSLPVTPGEPASISCQASQELVHMNRNTYLHWYQQKPGQAPRLLIYKVSNRFPGVPDRFSGSGSGTDFTLKISRVEAEDVGVYYCAQGTSVPFTFGQGTKLEIK
0.8 fold	dBBDu183H A100N/dBBDu072L (antibody, name in Kabat numbering, V domains shown) VH: QVQLVESGGGLVQPGRSLRLSCAASGFTFSNAWMHWVRQAPGKGLEWVAQIKDKGNAYAAYYAPSVKGRFTISRDDSKNSIYLQMNSLKTEDTAVYYCHYVHYASNSTVLPAFGVDAWGQGTTVTVSS VL: DIVMTQSPLSLPVTPGEPASISCQASQELVHMNRNTYLHWYQQKPGQAPRLLIYKVSNRFPGVPDRFSGSGSGTDFTLKISRVEAEDVGVYYCAQGTSVPFTFGQGTKLEIK
1.3 fold	dBBDu183H A100fN/dBBDu072L (antibody, name in Kabat numbering, V domains shown) VH: QVQLVESGGGLVQPGRSLRLSCAASGFTFSNAWMHWVRQAPGKGLEWVAQIKDKGNAYAAYYAPSVKGRFTISRDDSKNSIYLQMNSLKTEDTAVYYCHYVHYASASTVLPNFGVDAWGQGTTVTVSS VL: DIVMTQSPLSLPVTPGEPASISCQASQELVHMNRNTYLHWYQQKPGQAPRLLIYKVSNRFPGVPDRFSGSGSGTDFTLKISRVEAEDVGVYYCAQGTSVPFTFGQGTKLEIK
0.9 fold	dBBDu183H A100T/dBBDu072L (antibody, name in Kabat numbering, V domains shown) VH: QVQLVESGGGLVQPGRSLRLSCAASGFTFSNAWMHWVRQAPGKGLEWVAQIKDKGNAYAAYYAPSVKGRFTISRDDSKNSIYLQMNSLKTEDTAVYYCHYVHYASTSTVLPAFGVDAWGQGTTVTVSS VL: DIVMTQSPLSLPVTPGEPASISCQASQELVHMNRNTYLHWYQQKPGQAPRLLIYKVSNRFPGVPDRFSGSGSGTDFTLKISRVEAEDVGVYYCAQGTSVPFTFGQGTKLEIK
1.2 fold	dBBDu183H A100fH/dBBDu072L (antibody, name in Kabat numbering, V domains shown) VH: QVQLVESGGGLVQPGRSLRLSCAASGFTFSNAWMHWVRQAPGKGLEWVAQIKDKGNAYAAYYAPSVKGRFTISRDDSKNSIYLQMNSLKTEDTAVYYCHYVHYASASTVLPHFGVDAWGQGTTVTVSS VL: DIVMTQSPLSLPVTPGEPASISCQASQELVHMNRNTYLHWYQQKPGQAPRLLIYKVSNRFPGVPDRFSGSGSGTDFTLKISRVEAEDVGVYYCAQGTSVPFTFGQGTKLEIK
0.5 fold	dBBDu183H A100fE/dBBDu072L (antibody, name in Kabat numbering, V domains shown) VH: QVQLVESGGGLVQPGRSLRLSCAASGFTFSNAWMHWVRQAPGKGLEWVAQIKDKGNAYAAYYAPSVKGRFTISRDDSKNSIYLQMNSLKTEDTAVYYCHYVHYASASTVLPEFGVDAWGQGTTVTVSS VL: DIVMTQSPLSLPVTPGEPASISCQASQELVHMNRNTYLHWYQQKPGQAPRLLIYKVSNRFPGVPDRFSGSGSGTDFTLKISRVEAEDVGVYYCAQGTSVPFTFGQGTKLEIK
1.9 fold	dBBDu183H A100W/dBBDu072L (antibody, name in Kabat numbering, V domains shown) VH: QVQLVESGGGLVQPGRSLRLSCAASGFTFSNAWMHWVRQAPGKGLEWVAQIKDKGNAYAAYYAPSVKGRFTISRDDSKNSIYLQMNSLKTEDTAVYYCHYVHYASWSTVLPAFGVDAWGQGTTVTVSS VL: DIVMTQSPLSLPVTPGEPASISCQASQELVHMNRNTYLHWYQQKPGQAPRLLIYKVSNRFPGVPDRFSGSGSGTDFTLKISRVEAEDVGVYYCAQGTSVPFTFGQGTKLEIK
